The values that follow come from publication PMC2699888 (Oncogene, 2006).

Ends that are not written are not given here. * marks the point of attachment. Biotin = O=C1N[C@H]2[C@H](CS[C@H]2CCCCC(=O)*)N1

For this assay, the target named is purified human PCNA (human, UniProt P12004 1-261). Description: ELISA. On the technique in general: An ELISA detects its analyte on a solid surface through an enzyme-linked reagent.
Chain of purified human PCNA (P12004 whole entry): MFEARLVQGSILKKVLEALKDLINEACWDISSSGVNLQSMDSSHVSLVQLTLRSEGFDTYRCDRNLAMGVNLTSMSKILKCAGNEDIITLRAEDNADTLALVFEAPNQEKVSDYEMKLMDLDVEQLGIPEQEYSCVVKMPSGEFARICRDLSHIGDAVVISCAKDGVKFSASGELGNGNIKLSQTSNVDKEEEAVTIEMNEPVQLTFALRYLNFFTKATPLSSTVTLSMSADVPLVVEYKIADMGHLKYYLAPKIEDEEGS

B1: pogo, biotinylated peptide derived from the Drosophila Pogo transposase (peptide)
peptide: Biotin-SGSGKLFNLHINSAVLQKKITDYF
As for B1, the binding result is on record as “binds”.

B2: pep102, biotinylated synthetic peptide (peptide)
peptide: Biotin-SGSGDPDCGCSRRGCVLRMIRRRN
modifications: cysteine pairing not given here
Regarding B2, the binding result was “binds”.

B3: pep103, biotinylated synthetic peptide (peptide)
peptide: Biotin-SGSGDPLWCQSAVFLIRMWLRSRN
Turning to B3, the binding result is given as “binds”.
